Patent US20260207704A1, “STAPLED PEPTIDES AND METHODS THEREOF” (priority 2022, published 2026)
*1 amine or outer side, *2 acyl side, *3 side chain or, on linkers, in order; H or OH if unused. Bridges are numbered along the chain shown (N, C = ends). Primed or numbered codes have the meaning given here. [ ]: non-standard residue; d: D form. PyrS2(6) = (S)-3-amino-1-((pent-4-en-1-yloxy)carbonyl)pyrrolidine-3-carboxylic acid, stapled with another olefin-containing amino acid residue through the olefin group, O=C(OCCCC=[*:3])N1CC[C@@](N[*:1])(C(=O)[*:2])C1; B5(4) = 2-amino-2-(pent-4-en-1-yl)hept-6-enoic acid, stapled through each of its two olefin groups with other olefin-containing amino acid residues, O=C(C(CCCC=[*:3])(CCCC=[*:4])N[*:1])[*:2]; PyrS2″ = (S)-3-amino-1-((pent-4-en-1-yloxy)carbonyl)pyrrolidine-3-carboxylic acid (olefin stapling residue), C=CCCCOC(=O)N1CC[C@@](N[*:1])(C(=O)[*:2])C1; PyrS2(3) = (S)-3-amino-1-((pent-4-en-1-yloxy)carbonyl)pyrrolidine-3-carboxylic acid, olefin residue, C=CCCCOC(=O)N1CC[C@@](N[*:1])(C(=O)[*:2])C1; TriAzLys = (S)-2-amino-5-(1H-1,2,3-triazol-1-yl)pentanoic acid, stapled through triazole 4-position, O=C([C@H](CCCn1cc([*:3])nn1)N[*:1])[*:2]; PyrS2(5) = (S)-3-amino-1-((pent-4-en-1-yloxy)carbonyl)pyrrolidine-3-carboxylic acid, C=CCCCOC(=O)N1CC[C@@](N[*:1])(C(=O)[*:2])C1; B5″ = 2-amino-2-(pent-4-en-1-yl)hept-6-enoic acid (bis-olefin stapling residue), C=CCCCC(CCCC=C)(N[*:1])C(=O)[*:2]; B5(3) = 2-amino-2-(pent-4-en-1-yl)hept-6-enoic acid, two olefin arms, C=CCCCC(CCCC=C)(N[*:1])C(=O)[*:2]; TriAzLys″ = azidolysine residue closed into triazole staple, O=C([C@H](CCCCn1cc([*:3])nn1)N[*:1])[*:2]; Phe(3-COOH) = N[C@@H](Cc1cccc(C(=O)O)c1)C(=O)O; 2F3MeF = Cc1cccc(C[C@H](N[*:1])C(=O)[*:2])c1F; Abu(4-yl) = O=C([C@H](CC[*:3])N[*:1])[*:2]; Bta = N[C@@H](Cc1csc2ccccc12)C(=O)O; αAllylPro = C=CC[C@@]1(C(=O)O)CCCN1; tBuAla = CC(C)(C)C[C@H](N)C(=O)O; 3Thi = N[C@@H](Cc1ccsc1)C(=O)O; TriAzLys(3) = not defined here; PyrS2(4) = not defined here; 2F3MeF(4) = Phe analogue; dGlnR = not defined here; GlnR = not defined here; sAla = not defined here; PL3 = not defined here; B5 = not defined here

B1: I-24 (peptide)
peptide: Ac-[αAllylPro]D[tBuAla][B5(4)]D[Phe(3-COOH)]AAF[sAla][PyrS2(6)][3Thi][Bta][TriAzLys(3)]-NH2
modifications: triazole 10-14; not fully specified (bridges); printed as Ac-PL3-Asp-Npg-B5-Asp-3COOHF-Ala-Ala-Phe-sAla*3-PyrS2-3Thi-BztA-TriAzLys*3-NH2; reading uncertain
B2: I-10 (peptide)
peptide: Ac-[PL3]DL[B5]D[Phe(3-COOH)]AAFK[PyrS2(4)][3Thi][Bta][GlnR]-NH2
modifications: staple 1-4; bridge 10-14; not fully specified (residue 10); printed as Ac-PL3-Asp-Leu-B5-Asp-3COOHF-Ala-Ala-Phe-dLys*3-PyrS2-3Thi-BztA-GlnR*3-NH2; reading uncertain; also: PyrS2 tied into a staple, partner not placed
B3: I-7 (peptide)
peptide: Ac-[αAllylPro]DL[B5(3)]DDKAF[GlnR][PyrS2(3)][3Thi][Bta]Q-NH2
modifications: bridge 7-10; not fully specified (bridges); printed as Ac-PL3-Asp-Leu-B5-Asp-Asp-Lys*3-Ala-Phe-GlnR*3-PyrS2-3Thi-BztA-Gln-NH2; reading uncertain
B4: I-12 (peptide)
peptide: Ac-[αAllylPro]DL[B5″]D[Phe(3-COOH)]AAFK[PyrS2″][3Thi][Bta][GlnR]-NH2
modifications: bridge 10-14; not fully specified (bridges); printed as Ac-PL3-Asp-Leu-B5-Asp-3COOHF-Ala-Ala-Phe-Lys*3-PyrS2-3Thi-BztA-GlnR*3-NH2; reading uncertain; also: Lys*3 and GlnR*3 marked *3
B5: I-11 (peptide)
peptide: Ac-[PL3]DL[B5]D[Phe(3-COOH)]AAFK[PyrS2(4)][3Thi][Bta][GlnR]-NH2
modifications: staple 1-4; bridge 10-14; reading uncertain; also: PyrS2 tied into a staple, partner not placed, printed as Ac-PL3-Asp-Leu-B5-Asp-3COOHF-Ala-Ala-Phe-Lys*3-PyrS2-3Thi-BztA-GlnR*3-NH2
B6: I-23 (peptide)
peptide: Ac-[PL3]D[tBuAla][B5(4)]DDAAF[sAla][PyrS2″][3Thi][Bta][TriAzLys″]-NH2
modifications: triazole 10-14; not fully specified (bridges); printed as Ac-PL3-Asp-Npg-B5-Asp-Asp-Ala-Ala-Phe-sAla*3-PyrS2-3Thi-BztA-TriAzLys*3-NH2; reading uncertain
B7: I-21 (peptide)
peptide: Ac-[PL3]D[tBuAla][B5(4)]D[Phe(3-COOH)]AAF[TriAzLys″][PyrS2″][2F3MeF][Bta][sAla]-NH2
modifications: triazole 10-14; not fully specified (bridges); printed as Ac-PL3-Asp-Npg-B5-Asp-3COOHF-Ala-Ala-Phe-TriAzLys*3-PyrS2-2F3MeF-BztA-sAla*3-NH2; reading uncertain
B8: I-19 (peptide)
peptide: Ac-[PL3]D[tBuAla][B5(4)]D[Phe(3-COOH)]AAF[TriAzLys″][PyrS2″][3Thi][Bta][sAla]-NH2
modifications: triazole 10-14; not fully specified (bridges); printed as Ac-PL3-Asp-Npg-B5-Asp-3COOHF-Ala-Ala-Phe-TriAzLys*3-PyrS2-3Thi-BztA-sAla*3-NH2; reading uncertain
B9: I-14 (peptide)
peptide: Ac-[αAllylPro]DL[B5(4)]D[Phe(3-COOH)]AAF[dGlnR][PyrS2(5)][3Thi][Bta]K-NH2
modifications: bridge 10-14; not fully specified (bridges); printed as Ac-PL3-Asp-Leu-B5-Asp-3COOHF-Ala-Ala-Phe-DGlnR*3-PyrS2-3Thi-BztA-Lys*3-NH2; reading uncertain; also: DGlnR10 and Lys14 marked *3
B10: I-13 (peptide)
peptide: Ac-[αAllylPro]DL[B5(4)]D[Phe(3-COOH)]AAF[dGlnR][PyrS2″][3Thi][Bta]K-NH2
modifications: bridge 10-14; not fully specified (bridges); printed as Ac-PL3-Asp-Leu-B5-Asp-3COOHF-Ala-Ala-Phe-DGlnR*3-PyrS2-3Thi-BztA-Lys*3-NH2; reading uncertain; also: DGlnR*3 and Lys*3 marked *3
B11: I-15 (peptide)
peptide: Ac-[αAllylPro]DL[B5″]D[Phe(3-COOH)]AAF[GlnR][PyrS2″][3Thi][Bta]K-NH2
modifications: bridge 10-14; reading uncertain; also: PL3-B5 and PyrS2 links not placed, printed as Ac-PL3-Asp-Leu-B5-Asp-3COOHF-Ala-Ala-Phe-GlnR*3-PyrS2-3Thi-BztA-Lys*3-NH2
B12: I-25 (peptide)
peptide: Ac-[αAllylPro]D[tBuAla][B5(4)]D[Phe(3-COOH)]AAF[sAla][PyrS2(6)][2F3MeF(4)][Bta][TriAzLys(3)]-NH2
modifications: triazole 10-14; not fully specified (bridges); printed as Ac-PL3-Asp-Npg-B5-Asp-3COOHF-Ala-Ala-Phe-sAla*3-PyrS2-2F3MeF-BztA-TriAzLys*3-NH2; reading uncertain
B13: I-8 (peptide)
peptide: XDLXDDQAFKXXXQ
modifications: not fully specified; Ac-PL3-Asp-Leu-B5-Asp-Asp-GlnR*3-Ala-Phe-Lys*3-PyrS2-3Thi-BztA-Gln-NH2
B14: I-16 (peptide)
peptide: Ac-[αAllylPro]DL[B5″]D[Phe(3-COOH)]AAF[GlnR][PyrS2″][3Thi][Bta]K-NH2
modifications: bridge 10-14; reading uncertain; also: PL3-B5 and PyrS2 links not placed, printed as Ac-PL3-Asp-Leu-B5-Asp-3COOHF-Ala-Ala-Phe-GlnR*3-PyrS2-3Thi-BztA-Lys*3-NH2

Target: beta-catenin (human)
Sequence (B6V8E6 146-665 limits assumed): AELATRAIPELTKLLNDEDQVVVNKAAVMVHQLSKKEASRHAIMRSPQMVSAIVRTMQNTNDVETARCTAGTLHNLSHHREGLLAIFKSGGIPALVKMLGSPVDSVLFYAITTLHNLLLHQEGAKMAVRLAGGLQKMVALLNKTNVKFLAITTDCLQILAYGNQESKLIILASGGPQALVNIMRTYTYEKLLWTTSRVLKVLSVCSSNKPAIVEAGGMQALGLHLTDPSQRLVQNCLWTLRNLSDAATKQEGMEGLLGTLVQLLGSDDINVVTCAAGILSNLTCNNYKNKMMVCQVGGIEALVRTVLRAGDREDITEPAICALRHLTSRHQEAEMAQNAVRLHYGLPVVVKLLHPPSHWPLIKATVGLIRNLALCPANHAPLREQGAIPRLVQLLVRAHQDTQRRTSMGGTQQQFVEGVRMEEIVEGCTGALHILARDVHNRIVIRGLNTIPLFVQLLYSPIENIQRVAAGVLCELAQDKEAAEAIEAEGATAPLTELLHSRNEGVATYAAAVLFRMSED
Experiment: cell-based or functional assay

Q: For B1, which NanoBRET Abs IC50 (bin >3.0 uM) is on record?
A: < 10 µM

Q: With B2 as the binder, how does the NanoBRET Abs IC50 read?
A: > 10 µM

Q: Which NanoBRET Abs IC50 does the source give for B3 here?
A: > 10 µM

Q: Which NanoBRET Abs IC50 (bin >3.0 uM) does the source give for B4 here?
A: < 10 µM

Q: With B5 as the binder, how does the NanoBRET Abs IC50 (bin >1.5 uM) read?
A: < 3 µM

Q: Which NanoBRET Abs IC50 (bin >3.0 uM) does the source give for B6 here?
A: < 10 µM

Q: How did the NanoBRET Abs IC50 turn out when Ac-[αAllylPro]D[tBuAla][B5″]DDAAF[TriAzLys][PyrS2″][3Thi][Bta][Abu(4-yl)]-NH2 (triazole 10-14; also: PL3-B5 and PyrS2 links not placed) [I-17] was run?
A: > 10 µM

Q: How did the NanoBRET Abs IC50 (bin >1.5 uM) turn out when B7 was run?
A: < 3 µM

Q: For B8, which NanoBRET Abs IC50 (bin >3.0 uM) is on record?
A: < 10 µM

Q: With B9 as the binder, how does the NanoBRET Abs IC50 (bin >3.0 uM) read?
A: < 10 µM

Q: How did the NanoBRET Abs IC50 (bin >3.0 uM) turn out when B10 was run?
A: < 10 µM

Q: B11 was tested. Which NanoBRET Abs IC50 (bin >1.5 uM) did it give?
A: < 3 µM

Q: How did the NanoBRET Abs IC50 (bin >3.0 uM) turn out when B12 was run?
A: < 10 µM

Q: With B13 as the binder, how does the NanoBRET Abs IC50 read?
A: > 10 µM

Q: For B14, which NanoBRET Abs IC50 (bin >3.0 uM) is on record?
A: < 10 µM

Target: beta-catenin (human)
Experiment: fluorescence polarization

Q: B1 was tested. Which IC50 did it give?
A: < 0.05 µM

Q: How did the IC50 turn out when B2 was run?
A: < 0.05 µM

Q: With B3 as the binder, how does the IC50 read?
A: < 0.05 µM

Q: How did the IC50 turn out when B4 was run?
A: < 0.05 µM

Q: Which IC50 does the source give for B5 here?
A: < 0.05 µM

Q: How did the IC50 turn out when B6 was run?
A: < 0.05 µM

Q: Which IC50 does the source give for Ac-[αAllylPro]D[tBuAla][B5″]DDAAF[TriAzLys][PyrS2″][3Thi][Bta][Abu(4-yl)]-NH2 (triazole 10-14; also: PL3-B5 and PyrS2 links not placed) [I-17] here?
A: < 0.05 µM

Q: How did the IC50 turn out when B7 was run?
A: < 0.05 µM

Q: Which IC50 does the source give for B8 here?
A: < 0.05 µM

Q: With B9 as the binder, how does the IC50 read?
A: < 0.05 µM

Q: With B10 as the binder, how does the IC50 read?
A: < 0.05 µM

Q: For B11, which IC50 is on record?
A: < 0.05 µM

Q: Which IC50 does the source give for B12 here?
A: < 0.05 µM

Q: B13 was tested. Which IC50 did it give?
A: < 0.05 µM

Q: How did the IC50 turn out when B14 was run?
A: < 0.05 µM
